# Measured values as given in PMC8953729.
# Assays:
# Tyr11 (position 11, …--) = experiment: potentiometry; conditions: metal-free peptide
# [1] = biological target: Nterm1 (position 1, -----MDHSHH); experiment: potentiometry
protein,measurement,setting,value
MDHSHHMGMSYMDS,pKa,"Tyr11 (position 11, …--); 298.0 ± 0.2 K, 0.10 M (KNO3), none (titration with 0.1 M KOH under argon)",9.64
same,pKa,"Tyr11 (position 11, …--); cited from earlier work",9.84
same,pKa,"[1]; 298 K, 0.1 mol dm^-3 (KNO3), mononuclear Ag+ complex ([AgLH2] to [AgLH]), Ag+/peptide ratios 1:1, 1:2 and 2:1",7.33
same,pKa,"[1]; 298.0 ± 0.2 K, 0.10 M (KNO3), none (titration with 0.1 M KOH under argon), metal-free peptide",7.63
same,pKa,"[1]; metal-free peptide, cited from earlier work",7.46
